Measured values: patent US20080220004A1 (published 2008)

Tests used:
[1] = target: chimeric receptor Flt(1-7)-EpoR on Baf/3 cells (human) (UniProt P17948); assay: cell-based or functional assay
[2] = target: human VEGF165 (human, UniProt P15692-4 27-191); assay: ELISA of rabbit ocular tissue and plasma samples on human VEGF165-coated plates (pharmacokinetic detection)
Sequence of human VEGF165 (P15692 other isoform, or with tags, fused parts or gaps): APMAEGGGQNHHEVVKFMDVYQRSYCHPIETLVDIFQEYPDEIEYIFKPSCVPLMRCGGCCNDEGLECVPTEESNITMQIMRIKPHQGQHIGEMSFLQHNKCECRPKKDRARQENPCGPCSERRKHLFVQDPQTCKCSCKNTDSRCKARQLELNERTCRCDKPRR
Experimental: Ocular and systemic levels of two VEGF inhibitors were determined after a single intravitreal administration to male Pigmented New Zealand Cross Bred rabbits. At various time points following the injection, the rabbits were sacrificed and vitreous, retina, and choroid tissues were collected, as well as blood samples for plasma and serum.
Sample Processing. Generally, vitreal samples were thawed at room temperature and transferred to individual 5 mL polypropylene tubes. An equivalent weight per volume of RIPA buffer (20 MM Tris HCl, pH 7.5, 5 mM benzamidine, 150 mM sodium chloride, 50 mM sodium fluoride, 1 mM sodium orthovanadate, and 1 mM EDTA) was added to each sample, and homogenized (Cyclone I.Q. Microprocessor, Sentry) for 2, 45 second cycles at 5,500 rpm. The samples were then incubated for 20 minutes on ice and then centrifuged for 30 minute at 5,500 rpm at 4° C. The supernatant was removed and stored at −80° C. for analysis. Retinal and choroid samples were similarly processed the samples were homogenized for 30-60 seconds at the highest speed setting (Ultra Tunax T8 Homogenizer with S8N-5G Disposing Element, IKA Laboratoies). The samples were transferred to individual 1.5 mL eppendorf tubes and incubated for 20 minutes on ice. They were then centrifuged for 30 minutes at 5,500 rpm, 4° C. […]

Sequence of chimeric receptor Flt(1-7)-EpoR on Baf/3 cells (human) (P17948 other isoform, or with tags, fused parts or gaps mutant limits assumed): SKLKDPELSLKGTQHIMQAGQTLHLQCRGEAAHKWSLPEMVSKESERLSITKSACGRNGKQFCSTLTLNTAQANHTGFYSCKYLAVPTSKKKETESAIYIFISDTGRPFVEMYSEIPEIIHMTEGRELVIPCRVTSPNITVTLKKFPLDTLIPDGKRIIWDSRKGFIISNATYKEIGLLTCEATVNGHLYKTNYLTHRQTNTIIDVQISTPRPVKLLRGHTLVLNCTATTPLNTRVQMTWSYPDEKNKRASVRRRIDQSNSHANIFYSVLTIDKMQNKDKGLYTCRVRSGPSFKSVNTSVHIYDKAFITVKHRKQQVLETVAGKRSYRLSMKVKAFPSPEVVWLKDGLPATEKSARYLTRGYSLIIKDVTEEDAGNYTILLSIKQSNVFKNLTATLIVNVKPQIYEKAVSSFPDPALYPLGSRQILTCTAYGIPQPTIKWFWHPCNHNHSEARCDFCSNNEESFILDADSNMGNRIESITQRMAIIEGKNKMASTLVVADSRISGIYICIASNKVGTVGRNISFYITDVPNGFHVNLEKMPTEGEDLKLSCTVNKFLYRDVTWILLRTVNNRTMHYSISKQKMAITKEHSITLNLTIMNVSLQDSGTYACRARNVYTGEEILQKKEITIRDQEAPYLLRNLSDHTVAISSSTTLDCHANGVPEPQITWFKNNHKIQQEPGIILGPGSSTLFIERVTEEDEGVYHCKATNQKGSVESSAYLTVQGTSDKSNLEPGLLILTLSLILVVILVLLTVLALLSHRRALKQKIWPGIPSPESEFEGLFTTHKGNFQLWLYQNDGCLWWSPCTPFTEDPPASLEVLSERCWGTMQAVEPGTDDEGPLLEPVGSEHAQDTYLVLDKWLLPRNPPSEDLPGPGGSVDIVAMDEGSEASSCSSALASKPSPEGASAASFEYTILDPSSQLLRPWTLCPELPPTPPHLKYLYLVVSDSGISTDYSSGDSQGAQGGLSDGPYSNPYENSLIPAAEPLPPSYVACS

| proliferation of Baf/Flt(1-7)-EpoR cells (WST-8 bioreduction), EC50 [1] [nM] | binding result [2] | Molecule |
| --- | --- | --- |
| 0.018 | – | VEGF 121 (R&D Biosystems) (from UniProt P15692 27-147) (ligand) |
| – | binds | mini-VEGF trap (other, also called truncated VEGF trap protein) SDTGRPFVEMYSEIPEIIHMTEGRELVIPCRVTSPNITVTLKKFPLDTLIPDGKRIIWDSRKGFIISNATYKEIGLLTCEATVNGHLYKTNYLTHRQTNTIIDVVLSPSHGIELSVGEKLVLNCTARTELNVGIDFNWEYPSSKHQHKKLVNRDLKTQSGSEMKKFLSTLTIDGVTRSDQGLYTCAASSGLMTKKNSTFVRVHEKDKTHTCPPC |
